According to US5731183:

Key:
[1] = target: dimethylcasein
[2] = target: dimethylcasein; remark: listed apart in the source
[3] = target: dimethylcasein; remark: listed apart in the source

Question: Which Relative Activity (14C-putrescine bonded to dimethylcasein, 37° C., 30 minutes) (relative activity) [1] does the source give for “Bacillus subtilis AJ12866-derived transglutaminase (enzyme)” here?
Answer: 10200

Question: For “fused protein of an 11-residue lacZ-derived peptide and the Bacillus-derived TG, expressed from pBSTG75-11 in Escherichia coli JM109 (enzyme)”, which TG activity (dpm) (14C-putrescine caught by dimethylcasein) [2] is on record?
Answer: 496 dpm

B1: Bacillus subtilis AJ1307-derived transglutaminase (enzyme)
chain: MIIVSGQLLRPQDIENWQIDQNLNPLLKEMIETPVQFDYHSIAELMFELKLRMNIVAAAKTLHKSGAKFATFLKTYGNTTYWRVSPEGALELKYRMPPSKAIRDIAENGPFYAFECATAIVIIYYLALIDTIGEDKFNASFDRIILYDWHYEKLPIYTETGHHFFLGDCLYFKNPEFDPQKAQWRGENVILLGEDKYFAHGLGILNGKQIIDKLNSFRKKGALQSAYLLSQATRLDVPSLFR
Question: How did the relative TG activity (14C-putrescine bonded to dimethylcasein, 37° C., pH 7.5) (dpm/mg/30 min) [3] turn out when B1 was run?
Answer: 25000
